Measured values as given in publication PMC10058238, “Mechanism of sphingolipid homeostasis revealed by structural analysis of Arabidopsis SPT-ORM1 complex” (Science Advances, 2023).

Columns and labels:
purified protein [1] = substrate: N[C@@H](CO)C(=O)O; test: purified protein; conditions: 100 μM palmitoyl-CoA, 25 μM PLP, pH 7.5, 30 °C, active site in LCB2a/LCB1
purified protein [2] = substrate: CCCCCCCCCCCCCCCC(=O)SCCNC(=O)CCNC(=O)[C@H](O)C(C)(C)COP(=O)(O)OP(=O)(O)OC[C@H]1O[C@@H](n2cnc3c(N)ncnc32)[C@H](O)[C@@H]1OP(=O)(O)O; test: purified protein; assay type: biochemical, Arabidopsis thaliana; conditions: 100 mM L-serine, 25 μM PLP, pH 7.5, 30 °C, active site in LCB2a/LCB1

Row | Protein | Km (purified protein [1]) | K0.5 (purified protein [2])
1 | AtSPT-ORM1 complex (LCB1, LCB2a, SPTssa, ORM1) (Arabidopsis thaliana) (protein, full-length codon-optimized cDNAs; N-terminal Flag on SPTssa, other chains untagged; HEK293F, GDN; dimer of 1:1:1:1 protomers; endogenous ceramide copurifies; with Long chain base biosynthesis protein 1; Serine palmitoyltransferase small subunit A) chain 1: MITIPYLTAVSTYFSYGLLFAFGQLRDFFRRFIDWWFTSNLQGYAPICLGHEDFYIRRLYHRIQDCFERPISSAPDAWFDVVERYSNDNNKTLKRTTKTSRCLNLGSYNYLGFGSFDEYCTPRVIESLKKFSASTCSSRVDAGTTSVHAELEECVTRFVGKPAAVVFGMGYATNSAIIPVLIGKGGLIISDSLNHSSIVNGARGSGATIRVFQHNTPSHLERVLREQIAEGQPRTHRPWKKIIVVVEGIYSMEGEICHLPEVVAICKKYKAYVYLDEAHSIGAIGKTGKGICELLGVDTADVDVMMGTFTKSFGSCGGYIAGSKELIQYLKHQCPAHLYATSIPTPSAQQIISAIKVILGEDGSNRGAQKLARIRENSNFFRAELQKMGFEVLGDNDSPVMPIMLYNPAKIPAFSRECLRQKVAVVVVGFPATPLLLARARICISASHSREDLIRALKVISKVGDLSGIKYFPAEPKKIEQSKNDIKLD chain 2: MANLYVKAVPPPDMNRNTEWFMYPGVWTTYMLILFFGWLVVLSVSGCSPGMAWTVVNLAHFVVTYHSFHWMKGTPFADDQGIYNGLTWWEQMDNGQQLTRNRKFLTLVPVVLYLIASHTTDYRHPWLFLNTLAVMVLVVAKFPNMHKVRIFGINGDK chain 3: MASNLVEMFNAALNWVTMILESPSARVVLFGVPIRGHFFVEGLLGVVIIILLTRKSYKPPKRPLTEQEIDELCDEWVPEPLIPPITEDMKHEPPVLESAAGPHTTVNGKDVVNFASANYLGLIGHEKLLESCTSALEKYGVGSCGPRGFYGTIDVHLDCETRISKFLGTPDSILYSYGLSTMFSTIPCFCKKGDVIVADEGVHWGIQNGLQLSRSTIVYFKHNDMESLRITLEKIMTKYKRSKNLRRYIVAEAVYQNSGQIAPLDEIVKLKEKYRFRVILDESNSFGVLGRSGRGLAEHHSVPIEKIDVVTAAMGHALATEGGFCTGNARIIDYQRLSSSGYVFSASLPPYLASAAITAIDVIDQNPDMLVKLKQNVALLWKGLSDIKGMSLTSNRESPIVFLKLEKSSGSAKDDLLLLEKMADRALKEDSLLVVSSKRSFLDKCRLPVGIKLYVSAGHSESDLLKASESLKRLASELLLKS | 10.44 ± 0.88 mM | 69.05 ± 6.13 µM
2 | AtSPT complex (LCB1, LCB2a, SPTssa) (Arabidopsis thaliana) (protein, full-length codon-optimized cDNAs; N-terminal Flag on SPTssa, other chains untagged; HEK293F, GDN; without ORM1; with Serine palmitoyltransferase small subunit A) chain 1: MITIPYLTAVSTYFSYGLLFAFGQLRDFFRRFIDWWFTSNLQGYAPICLGHEDFYIRRLYHRIQDCFERPISSAPDAWFDVVERYSNDNNKTLKRTTKTSRCLNLGSYNYLGFGSFDEYCTPRVIESLKKFSASTCSSRVDAGTTSVHAELEECVTRFVGKPAAVVFGMGYATNSAIIPVLIGKGGLIISDSLNHSSIVNGARGSGATIRVFQHNTPSHLERVLREQIAEGQPRTHRPWKKIIVVVEGIYSMEGEICHLPEVVAICKKYKAYVYLDEAHSIGAIGKTGKGICELLGVDTADVDVMMGTFTKSFGSCGGYIAGSKELIQYLKHQCPAHLYATSIPTPSAQQIISAIKVILGEDGSNRGAQKLARIRENSNFFRAELQKMGFEVLGDNDSPVMPIMLYNPAKIPAFSRECLRQKVAVVVVGFPATPLLLARARICISASHSREDLIRALKVISKVGDLSGIKYFPAEPKKIEQSKNDIKLD chain 2: MASNLVEMFNAALNWVTMILESPSARVVLFGVPIRGHFFVEGLLGVVIIILLTRKSYKPPKRPLTEQEIDELCDEWVPEPLIPPITEDMKHEPPVLESAAGPHTTVNGKDVVNFASANYLGLIGHEKLLESCTSALEKYGVGSCGPRGFYGTIDVHLDCETRISKFLGTPDSILYSYGLSTMFSTIPCFCKKGDVIVADEGVHWGIQNGLQLSRSTIVYFKHNDMESLRITLEKIMTKYKRSKNLRRYIVAEAVYQNSGQIAPLDEIVKLKEKYRFRVILDESNSFGVLGRSGRGLAEHHSVPIEKIDVVTAAMGHALATEGGFCTGNARIIDYQRLSSSGYVFSASLPPYLASAAITAIDVIDQNPDMLVKLKQNVALLWKGLSDIKGMSLTSNRESPIVFLKLEKSSGSAKDDLLLLEKMADRALKEDSLLVVSSKRSFLDKCRLPVGIKLYVSAGHSESDLLKASESLKRLASELLLKS | 7.33 ± 0.65 mM | 8.29 ± 0.80 µM
